Experimental data from patent US20080235826.

How the values were obtained:
[1] = target: T1, purified oat phytochrome A, autophosphorylated (UniProt P06593)
T1 sequence: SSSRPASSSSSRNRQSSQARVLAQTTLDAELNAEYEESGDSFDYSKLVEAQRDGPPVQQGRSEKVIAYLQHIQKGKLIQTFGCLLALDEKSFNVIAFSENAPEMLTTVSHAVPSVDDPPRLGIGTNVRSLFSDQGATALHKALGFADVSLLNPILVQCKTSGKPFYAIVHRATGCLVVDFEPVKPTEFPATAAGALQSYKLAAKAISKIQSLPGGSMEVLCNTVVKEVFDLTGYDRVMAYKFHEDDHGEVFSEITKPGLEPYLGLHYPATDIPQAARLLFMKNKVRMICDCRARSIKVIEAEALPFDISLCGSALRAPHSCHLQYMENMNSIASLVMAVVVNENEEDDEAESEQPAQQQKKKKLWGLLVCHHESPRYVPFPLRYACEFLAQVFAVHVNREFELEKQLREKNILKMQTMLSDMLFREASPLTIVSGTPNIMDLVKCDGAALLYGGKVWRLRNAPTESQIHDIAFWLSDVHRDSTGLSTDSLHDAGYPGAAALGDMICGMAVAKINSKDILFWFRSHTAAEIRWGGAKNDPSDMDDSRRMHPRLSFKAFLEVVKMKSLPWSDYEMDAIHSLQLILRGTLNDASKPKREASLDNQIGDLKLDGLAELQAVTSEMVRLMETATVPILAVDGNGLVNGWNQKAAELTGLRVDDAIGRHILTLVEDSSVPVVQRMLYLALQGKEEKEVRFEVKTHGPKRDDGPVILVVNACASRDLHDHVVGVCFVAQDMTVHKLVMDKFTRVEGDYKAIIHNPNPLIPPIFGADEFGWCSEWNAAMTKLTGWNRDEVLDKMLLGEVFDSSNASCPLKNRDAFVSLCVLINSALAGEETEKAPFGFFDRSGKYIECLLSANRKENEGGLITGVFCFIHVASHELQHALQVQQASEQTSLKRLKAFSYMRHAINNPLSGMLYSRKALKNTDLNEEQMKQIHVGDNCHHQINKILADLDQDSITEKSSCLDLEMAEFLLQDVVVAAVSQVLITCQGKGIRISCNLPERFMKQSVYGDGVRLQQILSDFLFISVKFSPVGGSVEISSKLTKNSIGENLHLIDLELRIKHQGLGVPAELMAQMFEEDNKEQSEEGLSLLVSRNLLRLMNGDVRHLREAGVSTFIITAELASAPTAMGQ

[2] = target: Arabidopsis thaliana phytochrome B (PHYB), full-length, yeast two-hybrid bait in pGilda, P14713
Chain of Arabidopsis thaliana phytochrome B (PHYB), full-length, yeast two-hybrid bait in pGilda, P14713 (P14713 whole entry, the tested form may be a part): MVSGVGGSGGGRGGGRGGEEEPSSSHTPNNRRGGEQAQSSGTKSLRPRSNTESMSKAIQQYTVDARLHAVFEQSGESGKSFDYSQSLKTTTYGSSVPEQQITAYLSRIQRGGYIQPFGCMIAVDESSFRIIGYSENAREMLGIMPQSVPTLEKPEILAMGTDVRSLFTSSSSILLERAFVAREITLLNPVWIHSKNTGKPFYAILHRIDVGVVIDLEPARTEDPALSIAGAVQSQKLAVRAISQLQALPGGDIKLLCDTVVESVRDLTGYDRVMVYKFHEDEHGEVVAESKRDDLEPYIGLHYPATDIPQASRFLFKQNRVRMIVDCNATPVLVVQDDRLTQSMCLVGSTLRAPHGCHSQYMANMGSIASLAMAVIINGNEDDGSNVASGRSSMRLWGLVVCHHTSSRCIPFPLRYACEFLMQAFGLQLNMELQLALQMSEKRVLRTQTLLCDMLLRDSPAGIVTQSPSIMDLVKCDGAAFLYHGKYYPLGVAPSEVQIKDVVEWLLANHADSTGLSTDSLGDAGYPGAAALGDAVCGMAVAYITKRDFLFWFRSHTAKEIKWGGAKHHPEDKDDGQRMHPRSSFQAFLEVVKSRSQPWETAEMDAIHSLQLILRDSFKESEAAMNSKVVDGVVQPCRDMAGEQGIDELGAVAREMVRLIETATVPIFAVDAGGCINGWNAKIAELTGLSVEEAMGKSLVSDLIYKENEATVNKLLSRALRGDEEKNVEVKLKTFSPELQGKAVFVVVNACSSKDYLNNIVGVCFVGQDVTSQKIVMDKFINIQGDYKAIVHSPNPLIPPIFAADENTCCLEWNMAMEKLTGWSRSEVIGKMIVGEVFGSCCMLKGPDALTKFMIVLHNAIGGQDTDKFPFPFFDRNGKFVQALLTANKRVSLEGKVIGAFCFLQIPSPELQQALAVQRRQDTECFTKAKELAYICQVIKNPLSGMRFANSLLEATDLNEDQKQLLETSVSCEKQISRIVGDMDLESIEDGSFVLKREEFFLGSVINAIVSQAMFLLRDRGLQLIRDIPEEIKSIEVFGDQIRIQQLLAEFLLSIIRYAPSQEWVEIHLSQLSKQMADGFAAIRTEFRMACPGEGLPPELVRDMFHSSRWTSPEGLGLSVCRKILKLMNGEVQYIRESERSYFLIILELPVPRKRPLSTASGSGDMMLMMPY

[3] = target: T2, Arabidopsis thaliana phytochrome A (PHYA), full-length, yeast two-hybrid fusion
T2 chain: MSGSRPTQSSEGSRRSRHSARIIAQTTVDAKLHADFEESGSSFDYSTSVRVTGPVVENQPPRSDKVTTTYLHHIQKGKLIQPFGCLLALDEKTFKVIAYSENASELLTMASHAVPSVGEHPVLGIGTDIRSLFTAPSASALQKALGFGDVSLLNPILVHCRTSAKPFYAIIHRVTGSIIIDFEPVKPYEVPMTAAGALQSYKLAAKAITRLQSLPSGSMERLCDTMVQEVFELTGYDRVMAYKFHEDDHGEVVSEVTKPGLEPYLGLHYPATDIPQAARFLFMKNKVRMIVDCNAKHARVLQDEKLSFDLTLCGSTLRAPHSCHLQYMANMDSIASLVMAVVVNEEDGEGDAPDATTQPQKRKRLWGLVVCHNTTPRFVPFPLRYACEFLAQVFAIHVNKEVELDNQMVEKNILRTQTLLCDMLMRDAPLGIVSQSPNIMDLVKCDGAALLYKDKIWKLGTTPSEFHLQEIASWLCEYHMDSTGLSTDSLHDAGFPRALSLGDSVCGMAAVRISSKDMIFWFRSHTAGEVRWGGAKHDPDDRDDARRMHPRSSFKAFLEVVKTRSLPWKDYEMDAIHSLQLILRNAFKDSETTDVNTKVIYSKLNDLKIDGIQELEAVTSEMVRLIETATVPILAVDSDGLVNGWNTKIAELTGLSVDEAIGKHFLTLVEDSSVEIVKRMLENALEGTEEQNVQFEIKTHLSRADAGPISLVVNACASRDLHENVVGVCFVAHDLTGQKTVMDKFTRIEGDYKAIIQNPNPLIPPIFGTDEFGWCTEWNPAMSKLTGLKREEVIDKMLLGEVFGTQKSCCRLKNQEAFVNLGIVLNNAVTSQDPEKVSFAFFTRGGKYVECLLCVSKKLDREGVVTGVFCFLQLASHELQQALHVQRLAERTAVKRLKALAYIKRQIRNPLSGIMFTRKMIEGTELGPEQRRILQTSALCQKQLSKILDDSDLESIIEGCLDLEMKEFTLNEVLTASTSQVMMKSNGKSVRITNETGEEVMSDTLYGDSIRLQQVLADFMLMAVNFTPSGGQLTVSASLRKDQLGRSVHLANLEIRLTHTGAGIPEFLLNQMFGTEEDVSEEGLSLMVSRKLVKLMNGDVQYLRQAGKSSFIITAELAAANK

[4] = target: T3, purified oat phytochrome A, autophosphorylated, P06593
T3 chain: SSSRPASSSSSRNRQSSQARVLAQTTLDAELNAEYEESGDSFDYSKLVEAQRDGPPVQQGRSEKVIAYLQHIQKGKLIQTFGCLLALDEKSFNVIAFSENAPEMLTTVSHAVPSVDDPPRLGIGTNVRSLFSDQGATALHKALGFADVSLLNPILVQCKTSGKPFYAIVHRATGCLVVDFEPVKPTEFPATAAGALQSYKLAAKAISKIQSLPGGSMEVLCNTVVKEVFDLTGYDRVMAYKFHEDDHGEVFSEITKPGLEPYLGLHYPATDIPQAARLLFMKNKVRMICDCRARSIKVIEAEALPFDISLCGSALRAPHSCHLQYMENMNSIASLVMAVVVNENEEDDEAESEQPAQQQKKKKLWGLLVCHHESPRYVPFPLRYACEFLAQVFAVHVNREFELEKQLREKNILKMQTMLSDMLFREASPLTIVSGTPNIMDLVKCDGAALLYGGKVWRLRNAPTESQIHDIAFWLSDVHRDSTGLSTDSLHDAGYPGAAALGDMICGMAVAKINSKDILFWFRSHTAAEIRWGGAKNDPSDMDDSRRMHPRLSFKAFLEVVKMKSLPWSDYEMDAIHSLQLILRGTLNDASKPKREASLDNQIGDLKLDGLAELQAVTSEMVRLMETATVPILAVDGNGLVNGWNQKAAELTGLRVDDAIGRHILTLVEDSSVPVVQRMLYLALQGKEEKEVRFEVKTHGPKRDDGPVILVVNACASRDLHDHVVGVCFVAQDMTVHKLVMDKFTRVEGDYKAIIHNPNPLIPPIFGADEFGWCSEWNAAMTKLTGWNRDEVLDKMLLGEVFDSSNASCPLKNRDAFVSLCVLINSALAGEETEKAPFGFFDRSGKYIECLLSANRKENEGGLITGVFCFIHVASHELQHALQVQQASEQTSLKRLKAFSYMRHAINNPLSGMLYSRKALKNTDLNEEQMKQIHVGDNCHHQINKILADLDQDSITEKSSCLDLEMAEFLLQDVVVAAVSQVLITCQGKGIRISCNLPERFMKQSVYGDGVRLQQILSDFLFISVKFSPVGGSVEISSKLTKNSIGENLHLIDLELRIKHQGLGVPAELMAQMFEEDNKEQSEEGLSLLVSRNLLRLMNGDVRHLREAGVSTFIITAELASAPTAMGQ

## GST-PP2Ac (fusion protein of GST and the PP2A catalytic domain of PAPP5, with a deletion of amino acids 1-138 of SEQ ID NO: 4)
[1]
  dephosphorylation of autophosphorylated oat Pfr phytochrome A (32P autoradiography): the level of dephosphorylation was very low

B1: B42-PP2Ac (TPR domain-deleted PP2A catalytic domain of PAPP5, yeast two-hybrid prey) (protein)
chain: VPVSERRSVAESIDFHTIEVEPQYSGARIEGEEVTLDFVKTMMEDFKNQKTLHKRYAYQIVLQTRQILLALPSLVDISVPHGKHITVCGDVHGQFYDLLNIFELNGLPSEENPYLFNGDFVDRGSFSVEIILTLFAFKCMCPSSIYLARGNHESKSMNKIYGFEGEVRSKLSEKFVDLFAEVFCYLPLAHVINGKVFVVHGGLFSVDGVKLSDIRAIDRFCEPPEEGLMCELLWSDPQPLPGRGPSKRGVGLSFGGDVTKRFLQDNNLDLLVRSHEVKDEGYEVEHDGKLITVFSAPNYCDQMGNKGAFIRFEAPDMKPNIVTFSAVPHPDVKPMAYANNFLRMFN
[2]
  beta-galactosidase activity in Miller units (quantitative yeast two-hybrid): showed a remarkable reduction in the activity of interaction with phytochromes
[3]
  beta-galactosidase activity in Miller units (quantitative yeast two-hybrid): showed a remarkable reduction in the activity of interaction with phytochromes

B2: GST-PAPP5 fusion protein (glutathione-S-transferase fused to full-length PAPP5) (protein)
chain: METKNENSDVSRAEEFKSQANEAFKGHKYSSAIDLYTKAIELNSNNAVYWANRAFAHTKLEEYGSAIQDASKAIEVDSRYSKGYYRRGAAYLAMGKFKDALKDFQQVKRLSPNDPDATRKLKECEKAVMKLKFEEAISVPVSERRSVAESIDFHTIEVEPQYSGARIEGEEVTLDFVKTMMEDFKNQKTLHKRYAYQIVLQTRQILLALPSLVDISVPHGKHITVCGDVHGQFYDLLNIFELNGLPSEENPYLFNGDFVDRGSFSVEIILTLFAFKCMCPSSIYLARGNHESKSMNKIYGFEGEVRSKLSEKFVDLFAEVFCYLPLAHVINGKVFVVHGGLFSVDGVKLSDIRAIDRFCEPPEEGLMCELLWSDPQPLPGRGPSKRGVGLSFGGDVTKRFLQDNNLDLLVRSHEVKDEGYEVEHDGKLITVFSAPNYCDQMGNKGAFIRFEAPDMKPNIVTFSAVPHPDVKPMAYANNFLRMFN
[4]
  dephosphorylation of autophosphorylated oat Pfr phytochrome A (32P autoradiography): only GST-PAPP5 dephosphorylated the autophosphorylated oat Pfr phytochrome A by about 80%
  dephosphorylation of autophosphorylated oat phytochrome A according to its light absorption form: the dephosphorylation by PAPP5 was higher in Pfr phytochrome than that in Pf phytochrome
